In the supplement of paper PMC5998384:

How the values were obtained:
HeLa Kyoto [1] = assay: solubility in G1/S (NP-40 vs SDS abundance) (log2 ratio); higher = more soluble; conditions: cell cycle stage: G1/S
HeLa Kyoto [2] = assay: solubility change mitosis vs G1/S (difference of NP-40 vs SDS log2 ratios) (log2 ratio difference); higher = more soluble in mitosis
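Throughout, for solubility change mitosis vs G1/S (difference of NP-40 vs SDS log2 ratios): synchronized HeLa Kyoto cells (double thymidine block for G1/S, nocodazole release for mitosis), protein amounts in NP-40 versus SDS lysates quantified by mass spectrometry, three biological replicates.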
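Throughout, for solubility in G1/S (NP-40 vs SDS abundance): HeLa Kyoto cells arrested at G1/S by double thymidine block, proteins quantified by TMT10plex mass spectrometry in mild NP-40 versus SDS extracts, three biological replicates.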

MLSPQRALLCNLNHIHLQHVSLGLHLSRRPELQEGPLSTPPPPGDTGGKESRGPCSGTLVDANSNSPAVPCRCCQEHGPGLENRQDPSQEEEGAASPSDPGCSSSLSSCSDLSPDESPVSVYLRDLPGDEDAHPQPSIIPLEQGSPLASAGPGTCSPDSFCCSPDSCSGASSSPDPGLDSNCNALTTCQDVPSPGLEEEDERAEQDLPTSELLEADDGKIDAGKTEPSWKINPIWKIDTEKTKAEWKTTENNNTGWKNNGNVNSSWKSEPEKFDSGWKTNTRITDSGSKTDAGKIDGGWRSDVSEEPVPHRTITSFHELAQKRKRGPGLPLVPQAKKDRSDWLIVFSPDTELPPSGSPGGSSAPPREVTTFKELRSRSRAPAPPVPPRDPPVGWALVPPRPPPPPVPPRRKKNRPGLQPIAEGQSEEGRAVSPAAGEEAPAAKEPGAQAGLEVRSSWSFAGVPGAQRLWMAEAQSGTGQLQEQKKGLLIAVSVSVDKIISHFGAARNLVQKAQLGDSRLSPDVGHLVLTTLCPALHALVADGLKPFRKDLITGQRRSSPWSVVEASVKPGSSTRSLGTLYSQVSRLAPLSSSRSRFHAFILGLLNTKQLELWFSSLQEDAGLLSLLYLPTGFFSLARGGCPSLSTELLLLLQPLSVLTFHLDLLFEHHHHLPLGPPQAPAPPGPPPALQQTMQAMLHFGGRLAQSLRGTSKEAASDPSDSPNLPTPGSWWEQLTQASRVYASGGTEGFPLSRWAPGRHGTAAEEGAQERPLPTDEMAPGRGLWLGRLFGVPGGPAENENGALKSRRPSSWLPPTVSVLALVKRGAPPEMPSPQELEASAPRMVQTHRAVRALCDHTAARPDQLSFRRGEVLRVITTVDEDWLRCGRDGMEGLVPVGYTSLVL [RUSC1]
solubility in G1/S (log2) (HeLa Kyoto [1]): 0.182
solubility change mitosis (log2) (HeLa Kyoto [2]): -0.133

MMFGGYETIEAYEDDLYRDESSSELSVDSEVEFQLYSQIHYAQDLDDVIREEEHEEKNSGNSESSSSKPNQKKLIVLSDSEVIQLSDGSEVITLSDEDSIYRCKGKNVRVQAQENAHGLSSSLQSNELVDKKCKSDIEKPKSEERSGVIREVMIIEVSSSEEEESTISEGDNVESWMLLGCEVDDKDDDILLNLVGCENSVTEGEDGINWSISDKDIEAQIANNRTPGRWTQRYYSANKNIICRNCDKRGHLSKNCPLPRKVRRCFLCSRRGHLLYSCPAPLCEYCPVPKMLDHSCLFRHSWDKQCDRCHMLGHYTDACTEIWRQYHLTTKPGPPKKPKTPSRPSALAYCYHCAQKGHYGHECPEREVYDPSPVSPFICYYDDKYEIQEREKRLKQKIKVLKKNGVIPEPSKLPYIKAANENPHHDIRKGRASWKSNRWPQENKETQKEMKNKNRNWEKHRKADRHREVDEDFPRGPKTYSSPGSFKTQKPSKPFHRSSHYHTSREDKSPKEGKRGKQKKKERCWEDDDNDNLFLIKQRKKKS [ZCCHC7]
solubility in G1/S (log2) (HeLa Kyoto [1]): -2.02
solubility change mitosis (log2) (HeLa Kyoto [2]): 0.926

MMGSKMASASRVVQVVKPHTPLIRFPDRRDNPKPNVSEALRSAGLPSHSSVISQHSKGSKSPDLLMYQGPPDTAEIIKTLPQKYRRKLVSQEEMEFIQRGGPE [MRPS36]
solubility in G1/S (log2) (HeLa Kyoto [1]): 0.138
solubility change mitosis (log2) (HeLa Kyoto [2]): 0.401

MMLSRAKPAVGRGVQHTDKRKKKGRKIPKLEELLSKRDFTGAITLLEFKRHVGEEEEDTNLWIGYCAFHLGDYKRALEEYENATKEENCNSEVWVNLACTYFFLGMYKQAEAAGFKASKSRLQNRLLFHLAHKFNDEKKLMSFHQNLQDVTEDQLSLASIHYMRSHYQEAIDIYKRILLDNREYLALNVYVALCYYKLDYYDVSQEVLAVYLQQIPDSTIALNLKACNHFRLYNGRAAEAELKSLMDNASSSFEFAKELIRHNLVVFRGGEGALQVLPPLVDVIPEARLNLVIYYLRQDDVQEAYNLIKDLEPTTPQEYILKGVVNAALGQEMGSRDHMKIAQQFFQLVGGSASECDTIPGRQCMASCFFLLKQFDDVLIYLNSFKSYFYNDDIFNFNYAQAKAATGNTSEGEEAFLLIQSEKMKNDYIYLSWLARCYIMNKKPRLAWELYLKMETSGESFSLLQLIANDCYKMGQFYYSAKAFDVLERLDPNPEYWEGKRGACVGIFQMIIAGREPKETLREVLHLLRSTGNTQVEYMIRIMKKWAKENRVSI [TTC26]
solubility in G1/S (log2) (HeLa Kyoto [1]): -0.122
solubility change mitosis (log2) (HeLa Kyoto [2]): -0.0547

MMPFGKISQQLCGVKKLPWSCDSRYFWGWLNAVFNKVDYDRIRDVGPDRAASEWLLRCGAMVRYHGQERWQKDYNHLPTGPLDKYKIQAIDATDSCIMSIGFDHMEGLEHVEKIRLCKCHYIEDDCLLRLSQLENLQKTILEMEIISCGNITDKGIIALRHLRNLKYLLLSDLPGVREKENLVQAFKTALPSLELKLQLK [ATP5S]
solubility in G1/S (log2) (HeLa Kyoto [1]): -0.164
solubility change mitosis (log2) (HeLa Kyoto [2]): -0.136

MMSEHDLADVVQIAVEDLSPDHPVVLENHVVTDEDEPALKRQRLEINCQDPSIKTICLRLDSIEAKLQALEATCKSLEEKLDLVTNKQHSPIQVPMVAGSPLGATQTCNKVRCVVPQTTVILNNDRQNAIVAKMEDPLSNRAPDSLENVISNAVPGRRQNTIVVKVPGQEDSHHEDGESGSEASDSVSSCGQAGSQSIGSNVTLITLNSEEDYPNGTWLGDENNPEMRVRCAIIPSDMLHISTNCRTAEKMALTLLDYLFHREVQAVSNLSGQGKHGKKQLDPLTIYGIRCHLFYKFGITESDWYRIKQSIDSKCRTAWRRKQRGQSLAVKSFSRRTPNSSSYCPSEPMMSTPPPASELPQPQPQPQALHYALANAQQVQIHQIGEDGQVQVGHLHIAQVPQGEQVQITQDSEGNLQIHHVGQDGQLLEATRIPCLLAPSVFKASSGQVLQGAQLIAVASSDPAAAGVDGSPLQGSDIQVQYVQLAPVSDHTAGAQTAEALQPTLQPEMQLEHGAIQIQ [BANP]
solubility in G1/S (log2) (HeLa Kyoto [1]): 0.417
solubility change mitosis (log2) (HeLa Kyoto [2]): 0.0132

MNKNTSTVVSPSLLEKDPAFQMITIAKETGLGLKVLGGINRNEGPLVYIQEIIPGGDCYKDGRLKPGDQLVSVNKESMIGVSFEEAKSIITGAKLRLESAWEIAFIRQKSDNIQPENLSCTSLIEASGEYGPQASTLSLFSSPPEILIPKTSSTPKTNNDILSSCEIKTGYNKTVQIPITSENSTVGLSNTDVASAWTENYGLQEKISLNPSVRFKAEKLEMALNYLGIQPTKEQHQALRQQVQADSKGTVSFGDFVQVARNLFCLQLDEVNVGAHEISNILDSQLLPCDSSEADEMERLKCERDDALKEVNTLKEKLLESDKQRKQLTEELQNVKQEAKAVVEETRALRSRIHLAEAAQRQAHGMEMDYEEVIRLLEAKITELKAQLADYSDQNKESVQDLKKRIMVLDCQLRKSEMARKTFEASTEKLLHFVEAIQEVFSDNSTPLSNLSERRAVLASQTSLTPLGRNGRSIPATLALESKELVKSVRALLDMDCLPYGWEEAYTADGIKYFINHVTQTTSWIHPVMSVLNLSRSEENEEDCSRELPNQKS [STXBP4]
solubility in G1/S (log2) (HeLa Kyoto [1]): 0.308
solubility change mitosis (log2) (HeLa Kyoto [2]): -0.138

MNLQAQPKAQNKRKRCLFGGQEPAPKEQPPPLQPPQQSIRVKEEQYLGHEGPGGAVSTSQPVELPPPSSLALLNSVVYGPERTSAAMLSQQVASVKWPNSVMAPGRGPERGGGGGVSDSSWQQQPGQPPPHSTWNCHSLSLYSATKGSPHPGVGVPTYYNHPEALKREKAGGPQLDRYVRPMMPQKVQLEVGRPQAPLNSFHAAKKPPNQSLPLQPFQLAFGHQVNRQVFRQGPPPPNPVAAFPPQKQQQQQQPQQQQQQQQAALPQMPLFENFYSMPQQPSQQPQDFGLQPAGPLGQSHLAHHSMAPYPFPPNPDMNPELRKALLQDSAPQPALPQVQIPFPRRSRRLSKEGILPPSALDGAGTQPGQEATGNLFLHHWPLQQPPPGSLGQPHPEALGFPLELRESQLLPDGERLAPNGREREAPAMGSEEGMRAVSTGDCGQVLRGGVIQSTRRRRRASQEANLLTLAQKAVELASLQNAKDGSGSEEKRKSVLASTTKCGVEFSEPSLATKRAREDSGMVPLIIPVSVPVRTVDPTEAAQAGGLDEDGKGPEQNPAEHKPSVIVTRRRSTRIPGTDAQAQAEDMNVKLEGEPSVRKPKQRPRPEPLIIPTKAGTFIAPPVYSNITPYQSHLRSPVRLADHPSERSFELPPYTPPPILSPVREGSGLYFNAIISTSTIPAPPPITPKSAHRTLLRTNSAEVTPPVLSVMGEATPVSIEPRINVGSRFQAEIPLMRDRALAAADPHKADLVWQPWEDLESSREKQRQVEDLLTAACSSIFPGAGTNQELALHCLHESRGDILETLNKLLLKKPLRPHNHPLATYHYTGSDQWKMAERKLFNKGIAIYKKDFFLVQKLIQTKTVAQCVEFYYTYKKQVKIGRNGTLTFGDVDTSDEKSAQEEVEVDIKTSQKFPRVPLPRRESPSEERLEPKREVKEPRKEGEEEVPEIQEKEEQEEGRERSRRAAAVKATQTLQANESASDILILRSHESNAPGSAGGQASEKPREGTGKSRRALPFSEKKKKTETFSKTQNQENTFPCKKCGR [ELMSAN1]
solubility in G1/S (log2) (HeLa Kyoto [1]): -0.0645
solubility change mitosis (log2) (HeLa Kyoto [2]): 0.257

MNRHLCVWLFRHPSLNGYLQCHIQLHSHQFRQIHLDTRLQVFRQNRNCILHLLSKNWSRRYCHQDTKMLWKHKALQKYMENLSKEYQTLEQCLQHIPVNEENRRSLNRRHAELAPLAAIYQEIQETEQAIEELESMCKSLNKQDEKQLQELALEERQTIDQKINMLYNELFQSLVPKEKYDKNDVILEVTAGRTTGGDICQQFTREIFDMYQNYSCYKHWQFELLNYTPADYGGLHHAAARISGDGVYKHLKYEGGIHRVQRIPEVGLSSRMQRIHTGTMSVIVLPQPDEVDVKLDPKDLRIDTFRAKGAGGQHVNKTDSAVRLVHIPTGLVVECQQERSQIKNKEIAFRVLRARLYQQIIEKDKRQQQSARKLQVGTRAQSERIRTYNFTQDRVSDHRIAYEVRDIKEFLCGGKGLDQLIQRLLQSADEEAIAELLDEHLKSAK [MTRF1]
solubility in G1/S (log2) (HeLa Kyoto [1]): 0.228
solubility change mitosis (log2) (HeLa Kyoto [2]): -0.0209

MNSSSANITYASRKRRKPVQKTVKPIPAEGIKSNPSKRHRDRLNTELDRLASLLPFPQDVINKLDKLSVLRLSVSYLRAKSFFDVALKSSPTERNGGQDNCRAANFREGLNLQEGEFLLQALNGFVLVVTTDALVFYASSTIQDYLGFQQSDVIHQSVYELIHTEDRAEFQRQLHWALNPSQCTESGQGIEEATGLPQTVVCYNPDQIPPENSPLMERCFICRLRCLLDNSSGFLAMNFQGKLKYLHGQKKKGKDGSILPPQLALFAIATPLQPPSILEIRTKNFIFRTKHKLDFTPIGCDAKGRIVLGYTEAELCTRGSGYQFIHAADMLYCAESHIRMIKTGESGMIVFRLLTKNNRWTWVQSNARLLYKNGRPDYIIVTQRPLTDEEGTEHLRKRNTKLPFMFTTGEAVLYEATNPFPAIMDPLPLRTKNGTSGKDSATTSTLSKDSLNPSSLLAAMMQQDESIYLYPASSTSSTAPFENNFFNESMNECRNWQDNTAPMGNDTILKHEQIDQPQDVNSFAGGHPGLFQDSKNSDLYSIMKNLGIDFEDIRHMQNEKFFRNDFSGEVDFRDIDLTDEILTYVQDSLSKSPFIPSDYQQQQSLALNSSCMVQEHLHLEQQQQHHQKQVVVEPQQQLCQKMKHMQVNGMFENWNSNQFVPFNCPQQDPQQYNVFTDLHGISQEFPYKSEMDSMPYTQNFISCNQPVLPQHSKCTELDYPMGSFEPSPYPTTSSLEDFVTCLQLPENQKHGLNPQSAIITPQTCYAGAVSMYQCQPEPQHTHVGQMQYNPVLPGQQAFLNKFQNGVLNETYPAELNNINNTQTTTHLQPLHHPSEARPFPDLTSSGFL [AHR]
solubility in G1/S (log2) (HeLa Kyoto [1]): -0.135
solubility change mitosis (log2) (HeLa Kyoto [2]): -0.105
